Key:
[1] = target: T1, Fc-KAAG1 truncated mutant ending at amino acid 60 of KAAG1 (human, UniProt Q9UBP8 1-60, biotinylated); experiment: ELISA: biotinylated Fc-KAAG1 1-60 on streptavidin plate, OD450
T1 construct: also called KAAG1 truncated Fc-fusion (1-60); not shown: Fc part from vector pYD5
T1 sequence: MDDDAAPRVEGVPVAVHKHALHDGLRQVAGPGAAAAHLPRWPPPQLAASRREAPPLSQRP
Method: (§1) The expression and purification of human recombinant KAAG1 as an Fc fusion protein is found in PCT/CA2009/001586. To carry out the binding of Fc-KAAG1 to the antibody preparation, the Fc-KAAG1 was biotinylated with NHS-biotin (Pierce, Rockford, Ill.) and 10 ng/well was coated in a streptavidin 96-well plate for 1 h at room temperature. Purified chimeric 3A4 was added at increasing concentrations and incubated at room temperature for 30 minutes. Bound antibody was detected with HRP-conjugated human anti-kappa light chain antibody in the presence of TMB liquid substrate (Sigma-Aldrich Canada Ltd., Oakville, ON) and readings were conducted at 450 nm in microtiter plate reader. […] When the control unrelated IgG was incubated with the recombinant KAAG1, no binding activity was observed, even at the very highest concentration. […] The binding of 3A4 was compared to the binding of the chimeric 3D3 (described in Tremblay and Filion (2009)), that has different epitope specificity (see Example 2). The binding activity of 3A4 is very similar to 3D3 in this type of assay (see FIG. 1).
(§2) Based on the teachings of Tremblay and Filion (2009), it was known that other antibodies interacted with specific regions of recombinant KAAG1. Thus, anti-KAAG1 antibody 3C4, 3D3, and 3G10 interacted with the regions 1-35, 36-60, and 61-84 of KAAG1, respectively. […]

[2] = target: T2, Fc-KAAG1 truncated mutant ending at amino acid 35 of KAAG1 (human, not fully specified; biotinylated); experiment: ELISA: biotinylated Fc-KAAG1 1-35 on streptavidin plate, OD450
T2 construct: also called KAAG1 truncated Fc-fusion (1-35); not shown: Fc part from vector pYD5
T2 chain: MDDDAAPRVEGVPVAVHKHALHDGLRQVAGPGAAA
Method: as §1, §2

[3] = target: T3, recombinant human KAAG1 (purified protein) (human, UniProt Q9UBP8 1-84, limits assumed); experiment: surface plasmon resonance (told in the summary); summary statement; form of 3A4 and SPR set-up not stated
T3 construct: also called gel filtration purified KAAG1
T3 sequence: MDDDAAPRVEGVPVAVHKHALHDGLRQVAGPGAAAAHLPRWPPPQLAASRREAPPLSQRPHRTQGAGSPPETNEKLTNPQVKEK

[4] = target: T3, recombinant human KAAG1 (purified …); experiment: SPR (ProteOn XPR36), antibody captured on anti-human IgG Fc, KAAG1 as analyte, 25 C; parent LcHc (chimeric 3A4)
Method: Immediately after the activation, a 13 μg/mL solution of anti-human IgG Fc fragment specific in 10 mM NaOAc pH 4.5 was injected in the analyte direction at a flow rate of 25 μL/min until approximately 8000 resonance units (RUs) were immobilized. Remaining active groups were quenched by a 300 s injection of 1M ethanolamine at 30 μL/min in the analyte direction, and this also ensures mock-activated interspots are created for blank referencing. The screening of the 3A4 variants for binding to KAAG1 occurred in two steps: an indirect capture of 3A4 variants from cell supernatant onto the anti-human IgG Fc fragment specific surface in the ligand direction (vertical) followed by a KAAG1 injection in the analyte direction. Firstly, one buffer injection for 30 s at 100 uL/min in the ligand direction was used to stabilize the baseline. […] Four to five 3A4 variants along with wild-type 3A4 were simultaneously injected in individual ligand channels for 240 s at flow 25 μL/min. […] The first ligand channel was left empty to use as a blank control if required. […]
Sensorgrams were aligned and double-referenced using the buffer blank injection and interspots, and the resulting sensorgrams were analyzed using ProteOn Manager software v3.0.

[5] = target: T4, KAAG1 on the surface of cancer cells (SKOV-3, TOV-21G ovarian cancer cells) (human, UniProt Q9UBP8 31-84); experiment: flow cytometry on KAAG1-expressing cancer cells (told in the summary)
T4 construct: endogenous KAAG1 of human cancer cell lines; Also used for the Triton X-100 permeabilized SKOV-3 cells (named in the assay field); also called KAAG1 antigen; cell surface KAAG1
T4 sequence: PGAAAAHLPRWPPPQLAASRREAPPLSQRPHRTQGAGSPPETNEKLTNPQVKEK

B1: 3A4 chimeric anti-KAAG1 antibody (mouse-human chimeric IgG1) (antibody, V domains shown)
VH: QIQLVQSGPEMVKPGASVKMSCKASGYTFTDDYMSWVKQSHGKSLEWIGDINPYNGDTNYNQKFKGKAILTVDKSSSTAYMQLNSLTSEDSAVYYCARDPGAMDYWGQGTSVTVSS
VL: DVVMTQTPLSLAVSLGDQASISCRSSQSLLHSNGNTYLEWYLQKPGQSPKLLIHTVSNRFSGVPDRFSGSGSGTDFTLKISRVEAEDLGVYYCFQGSHVPLTFGAGTRLELKR
notes: also called chimeric 3A4; murine 3A4
**Q.** Does B1 bind [1]?
**A.** Result: no binding (tested: not given on the sheet)

**Q.** Does B1 bind [2]?
**A.** Result: no binding (tested: not given on the sheet)

**Q.** And the Kd [3]?
**A.** The Kd was ~0.057 nM.

**Q.** And the Kd [4]?
**A.** The Kd was 0.057 nM.

**Q.** What about the “fold less antibody required compared to 3G10” value [5] of the same binder?
**A.** Its value is ~10 fold.

From US20210054067A1 (ALETHIA BIOTHERAPEUTICS, published 2021)
